Values belong to the substance of their own block, whether it stands above or below them.
Columns and labels:
[1] = target: Pellino 2 (PELI2) FHA domain, 1-275 (UniProt Q9HAT8); assay: biotin-peptide pull-down, stained gel
[2] = target: RNF8 (UniProt O76064); assay: biotin-peptide pull-down, Western blot
[3] = target: Pellino 2 (PELI2) (UniProt Q9HAT8); assay: biotin-peptide pull-down, LC-MS/MS; details: reference: unphosphorylated T752 peptide; sites T752
[4] = target: RNF8 (UniProt O76064); assay: biotin-peptide pull-down, LC-MS/MS; details: reference: unphosphorylated T752 peptide; sites T752
[5] = target: Pellino 1 (PELI1) (UniProt Q96FA3); assay: biotin-peptide pull-down, LC-MS/MS; details: reference: unphosphorylated T752 peptide; sites T752
[6] = target: MDC1 (UniProt Q14676); assay: biotin-peptide pull-down, Western blot; details: reference: unphosphorylated S139 peptide; sites S139
[7] = reference: unphosphorylated T719 peptide, sites T719
[8] = reference: unphosphorylated T752 peptide, sites T752

binding against the reference [1, 7]: gained
binding against the reference [2, 7]: stronger
Substance: MDC1 (from UniProt Q14676) pT719 peptide

binding against the reference ([2]; reference: unphosphorylated T765 peptide, sites T765): stronger
Substance: MDC1 (from UniProt Q14676) pT765 peptide

binding against the reference [3]: gained
binding against the reference [4]: gained
binding against the reference [5]: gained
binding against the reference [1, 8]: gained
binding against the reference [2, 8]: stronger
Substance: MDC1 743-757 (from UniProt Q14676) pT752 peptide

binding against the reference [6]: stronger
Substance: H2AX (from UniProt P16104) pS139 peptide

binding against the reference ([2]; reference: unphosphorylated T699 peptide, sites T699): stronger
Substance: MDC1 (from UniProt Q14676) pT699 peptide
